Measured values reported in patent publication US10800813 (Bicycle, dated 2020).
Numbered stars: 1 amine (or outer) side, 2 acyl side, 3 side chain; on linkers, the order of the positions; unused ones are H or OH. Bridge positions count the residues as written; N and C are the ends. Ends that are not written are not given here. TBMB = c1c(C[*:1])cc(C[*:3])cc1C[*:2]

What follows are binders tested against T1, biotinylated human plasma Kallikrein (human, UniProt P03952 20-638, biotinylated) (assay: phage binding assay, signal:background).
T1 construct: also called Biotinylated hPK
Procedure: Library transformant colonies, or selection output colonies, were picked and grown as individual cultures in 2TY broth containing selective antibiotic. The picked colonies were DNA-sequenced using a QIAgen PyroMark Q96 DNA sequencer to reveal the amino-acid substitution present in each clone, and were assayed for human plasma Kallikrein binding as follows. The phage-containing supernatant was harvested from the culture and phage were cyclised with tris bromomethyl benzene(TBMB) based on the methods of Heinis et al (Nature Chemical Biology vol. 5 pp 502-507 (2009)). The purified phage from this process were assayed for binding to biotinylated human plasma Kallikrein using a homogeneous plate-based binding assay; assay read-out measured on a BMG Labtech Pherastar FS plate reader. The quantitative binding data from duplicate assay samples was averaged (mean) and expressed as signal:background. […] The assay data was correlated with the peptide sequences.
Selections against human plasma Kallikrein were performed with this library in order to study the non-WPAR (SEQ ID NO: 18) determinants of Kallikrein binding, and to isolate the optimal WPAR (SEQ ID NO: 18)-containing peptide sequence.

T1 sequence (P03952 20-638 limits assumed): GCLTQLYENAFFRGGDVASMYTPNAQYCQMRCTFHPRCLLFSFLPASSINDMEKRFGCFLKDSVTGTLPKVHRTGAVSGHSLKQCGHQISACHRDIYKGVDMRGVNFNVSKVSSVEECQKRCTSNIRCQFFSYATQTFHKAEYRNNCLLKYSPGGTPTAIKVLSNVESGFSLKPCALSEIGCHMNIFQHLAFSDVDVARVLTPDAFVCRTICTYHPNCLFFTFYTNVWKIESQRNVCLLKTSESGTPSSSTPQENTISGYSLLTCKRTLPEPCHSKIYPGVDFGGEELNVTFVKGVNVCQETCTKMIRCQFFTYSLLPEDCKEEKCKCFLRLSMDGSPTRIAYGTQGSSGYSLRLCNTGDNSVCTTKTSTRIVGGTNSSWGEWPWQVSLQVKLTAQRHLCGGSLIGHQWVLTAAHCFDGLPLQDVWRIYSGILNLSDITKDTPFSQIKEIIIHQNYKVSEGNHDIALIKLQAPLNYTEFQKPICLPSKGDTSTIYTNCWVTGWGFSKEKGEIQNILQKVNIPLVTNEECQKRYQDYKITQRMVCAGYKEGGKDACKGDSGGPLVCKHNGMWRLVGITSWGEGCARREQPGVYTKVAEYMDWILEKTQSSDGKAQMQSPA

Row | Binder | Binding assay signal
1 | CTWPARCLHQDLC (linker 1-7-13 via TBMB (inferred)) [SEQ ID NO 136] | 73
2 | CSWPARCTHAEMC (linker 1-7-13 via TBMB (inferred)) [SEQ ID NO 158] | 59
3 | CTWPARCTHQAFC (linker 1-7-13 via TBMB) [SEQ ID NO 160] | 59
4 | CAWPARCLHQDWC (linker 1-7-13 via TBMB (inferred)) [SEQ ID NO 151] | 63
5 | CLWPARCLTTELC (linker 1-7-13 via TBMB (inferred)) [SEQ ID NO 157] | 59
6 | CQWPARCMHQELC (linker 1-7-13 via TBMB (inferred)) [SEQ ID NO 135] | 73
7 | CTWPARCLHQHMC (linker 1-7-13 via TBMB (inferred)) [SEQ ID NO 154] | 61
8 | CQWPARCMHQDMC (linker 1-7-13 via TBMB (inferred)) [SEQ ID NO 131] | 75
9 | CAWPARCLHADMC (linker 1-7-13 via TBMB (inferred)) [SEQ ID NO 150] | 66
10 | CSWPARCVHQDMC (linker 1-7-13 via TBMB (inferred)) [SEQ ID NO 155] | 61
11 | CNWPARCTHQDLC (linker 1-7-13 via TBMB) [SEQ ID NO 115] | 116
12 | CAWPARCTHTHLC (linker 1-7-13 via TBMB (inferred)) [SEQ ID NO 149] | 66
13 | CTWPARCTHTDMC (linker 1-7-13 via TBMB (inferred)) [SEQ ID NO 148] | 67
14 | CEWPARCLHTDLC (linker 1-7-13 via TBMB (inferred)) [SEQ ID NO 156] | 60
15 | CTWPARCTHTDLC (linker 1-7-13 via TBMB (inferred)) [SEQ ID NO 123] | 88
16 | CPWPARCTHQDLC (linker 1-7-13 via TBMB) [SEQ ID NO 117] | 107
17 | CRWPARCTHQDLC (linker 1-7-13 via TBMB (inferred)) [SEQ ID NO 134] | 73
18 | CQWPARCLHTDLC (linker 1-7-13 via TBMB (inferred)) [SEQ ID NO 121] | 91
19 | CSWPARCTHSDLC (linker 1-7-13 via TBMB) [SEQ ID NO 161] | 59
20 | CMWPARCMHQDLC (linker 1-7-13 via TBMB (inferred)) [SEQ ID NO 129] | 79
21 | CLWPARCTHADLC (linker 1-7-13 via TBMB (inferred)) [SEQ ID NO 133] | 74
22 | CAWPARCTHTDLC (linker 1-7-13 via TBMB (inferred)) [SEQ ID NO 120] | 92
23 | CSWPARCTHTELC (linker 1-7-13 via TBMB (inferred)) [SEQ ID NO 144] | 69
24 | CAWPARCTHADLC (linker 1-7-13 via TBMB (inferred)) [SEQ ID NO 130] | 79
25 | CSWPARCLHTDLC (linker 1-7-13 via TBMB (inferred)) [SEQ ID NO 126] | 83

Row | Binder | Binding assay signal
26 | CSWPARCIHQDLC (linker 1-7-13 via TBMB (inferred)) [SEQ ID NO 147] | 68
27 | CQWPARCTHSDLC (linker 1-7-13 via TBMB (inferred)) [SEQ ID NO 132] | 74
28 | CSWPARCTHADLC (linker 1-7-13 via TBMB) [SEQ ID NO 118] | 100
29 | CAWPARCMHDDLC (linker 1-7-13 via TBMB (inferred)) [SEQ ID NO 145] | 69
30 | CSWPARCLHTELC (linker 1-7-13 via TBMB (inferred)) [SEQ ID NO 146] | 68
31 | CHWPARCMHQDLC (linker 1-7-13 via TBMB (inferred)) [SEQ ID NO 140] | 71
32 | CRWPARCTHTDLC (linker 1-7-13 via TBMB) [SEQ ID NO 159] | 59
33 | CHWPARCTHQELC (linker 1-7-13 via TBMB (inferred)) [SEQ ID NO 124] | 85
34 | CSWPARCTHSHLC (linker 1-7-13 via TBMB (inferred)) [SEQ ID NO 137] | 72
35 | CAWPARCLHDDLC (linker 1-7-13 via TBMB (inferred)) [SEQ ID NO 125] | 84
36 | CAWPARCTHVDLC (linker 1-7-13 via TBMB (inferred)) [SEQ ID NO 127] | 82
37 | CHWPARCTHQDLC (linker 1-7-13 via TBMB) [SEQ ID NO 116] | 110
38 | CAWPARCTHYDLC (linker 1-7-13 via TBMB (inferred)) [SEQ ID NO 142] | 70
39 | CSWPARCLHDDLC (linker 1-7-13 via TBMB) [SEQ ID NO 162] | 59
40 | CLWPARCTHQDLC (linker 1-7-13 via TBMB (inferred)) [SEQ ID NO 122] | 90
41 | CSWPARCTHDDLC (linker 1-7-13 via TBMB (inferred)) [SEQ ID NO 119] | 93
42 | CAWPARCTHTDFC (linker 1-7-13 via TBMB (inferred)) [SEQ ID NO 128] | 80
43 | CTWPARCTHADLC (linker 1-7-13 via TBMB (inferred)) [SEQ ID NO 139] | 71
44 | CPWPARCTHTDLC (linker 1-7-13 via TBMB (inferred)) [SEQ ID NO 141] | 70
45 | CPWPARCLHTDLC (linker 1-7-13 via TBMB) [SEQ ID NO 163] | 58
46 | CVWPARCTHQDLC (linker 1-7-13 via TBMB (inferred)) [SEQ ID NO 138] | 71
47 | CPWPARCTHQNLC (linker 1-7-13 via TBMB (inferred)) [SEQ ID NO 143] | 69
48 | CAWPARCTHQTMC (linker 1-7-13 via TBMB (inferred)) [SEQ ID NO 153] | 61
49 | CDWPARCMHQEFC (linker 1-7-13 via TBMB (inferred)) [SEQ ID NO 152] | 63
